Test results from paper PMC8949964, “In Vitro Biological Evaluation of Aprepitant Based ^177Lu-Radioconjugates” (Pharmaceutics, 2022).
Where “and” joins values, the source holds several entries; their conditions need not be identical. Equal entries are not always repeated. Where two headings read alike, the source gives them in different places. Square brackets hold non-standard residues; d marks the D form. Peptide text beside a SMILES is read from it. * marks the point of attachment. DOTA = O=C(O)CN1CCN(CC(=O)O)CCN(CC(=O)*)CCN(CC(=O)O)CC1; Met(O2) = CS(=O)(=O)CC[C@H](N)C(=O)O; 2Thi = N[C@@H](Cc1cccs1)C(=O)O

What was measured:
[1] = format: physicochemical
Description: A solution of purified ^177Lu-radioconjugate (around 1 MBq) or ^68Ga-radioconjugate (around 10 MBq) in 100 µL of 0.1M DPBS buffer was added into of 900 µL of 0.1 M DPBS buffer and 1000 µL of N-octanol (saturated with each other), vigorously stirred and centrifuged at 13,500 rpm for 5 min. Then, similar aliquots of both separated phases were taken for radioactivity measurement using a well-type NaI(Tl) detector. The lipophilicity values were expressed as the decimal logarithm of the distribution coefficient, D, which was calculated as a ratio of the radioconjugate radioactivity in the organic phase to that in the aqueous phase. Each experiment was performed in triplicate and the obtained values averaged. In parallel, the aqueous phases were analyzed by HPLC to confirm the stability of the studied radioconjugate during the experiment time.

human NK1 receptor = biological target: T1, human NK1 receptor (Homo sapiens, UniProt P25103); assay: Saturation binding of 177Lu-radioconjugates to hNK1R-CHO cells; details: maximal binding concentration, 60 min at 37 °C, specific activity 5 MBq/nmol
T1 construct: expressed in transfected cells; host or cells: CHO-K1 (hNK1R-CHO), gift from Dr. Attila Keresztes and Dr. John M. Streicher
T1 sequence (P25103 whole entry): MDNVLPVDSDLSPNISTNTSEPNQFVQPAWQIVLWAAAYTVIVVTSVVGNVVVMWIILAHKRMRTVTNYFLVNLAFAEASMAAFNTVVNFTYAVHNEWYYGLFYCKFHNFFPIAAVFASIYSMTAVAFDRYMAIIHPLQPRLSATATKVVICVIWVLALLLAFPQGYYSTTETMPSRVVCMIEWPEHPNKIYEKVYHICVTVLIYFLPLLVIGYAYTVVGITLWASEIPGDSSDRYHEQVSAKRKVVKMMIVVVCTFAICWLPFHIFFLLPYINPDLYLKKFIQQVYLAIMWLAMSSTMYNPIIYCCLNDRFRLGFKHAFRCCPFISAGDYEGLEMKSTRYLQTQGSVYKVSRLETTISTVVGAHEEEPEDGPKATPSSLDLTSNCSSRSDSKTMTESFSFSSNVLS
Description: Cells were grown in Ham’s F12 medium (Biological Industries, Beit HaEmek, Israel) supplemented with 10% Foetal Bovine Serum (Biological Industries, Beit HaEmek, Israel) and 400 μg/mL G418 (Capricorn Scientific, Ebsdorfergrund, Germany), incubated in a humidified atmosphere with 5% CO2 at 37 °C.
In brief, 10^5 cells per well were seeded into 24-well plates and incubated 24 h before the experiment. Just before the assay, the cells were washed with 37 °C Dulbecco’s PBS and then incubated with different concentrations of an analyzed radioconjugate (0.2–50 nM at a final volume) in the medium, with or without a 1000-fold molar excess of blocker (aprepitant or [Thi^8,Met(O2)^11]SP) in relation to the highest radioconjugate concentration applied for 60 min at 37 °C. After incubation time, the assay medium was collected into plastic tubes for radioactivity measurement and the cells were washed twice with ice-cold Dulbecco’s PBS. Subsequently, the cells were lysed using 1 M NaOH and collected into plastic tubes also for radioactivity measurement.
The radioactivity of collected samples were measured using a Wizard2 2-Detector Gamma Counter (PerkinElmer, Waltham, MA, USA). […] The Kd and BMAX with standard deviations (SD), were calculated using the “One site-total and nonspecific binding” nonlinear regression curve fit (GraphPad Prism 8, GraphPad, San Diego, CA, USA).

BMAX ± SD (human NK1 receptor) | Compound | logD ([1]; pH 7.4, logD 68Ga-) | logD ([1]; pH 7.4, logD 177Lu-)
 | C[C@@H](O[C@H]1OCCN(Cc2nn(CCCCCCCCCCNC(=O)CN3CCN(CC(=O)O)CCN(CC(=O)O)CCN(CC(=O)O)CC3)c(=O)[nH]2)[C@H]1c1ccc(F)cc1)c1cc(C(F)(F)F)cc(C(F)(F)F)c1 [APT-Dec-DOTA, 2-(10-(2-(1,4,7-tris(carboxymethyl)-1,4,7,10-tetraazacyclododecan-10-yl)acetamido)decyl)-5-([(2R,3S)-2-((R)-1-[3,5-bis(trifluoromethyl)phenyl]ethoxy)-3-(4-fluorophenyl)morpholino]methyl)-1H-1,2,4-triazol-3-one] | 1.6 ± 0.04 | 1.97 ± 0.02
 | C[C@@H](O[C@H]1OCCN(Cc2nn(CCCCCCNC(=O)CN3CCN(CC(=O)O)CCN(CC(=O)O)CCN(CC(=O)O)CC3)c(=O)[nH]2)[C@H]1c1ccc(F)cc1)c1cc(C(F)(F)F)cc(C(F)(F)F)c1 [APT-Hex-DOTA, 2-(6-(2-(1,4,7-tris(carboxymethyl)-1,4,7,10-tetraazacyclododecan-10-yl)acetamido)hexyl)-5-([(2R,3S)-2-((R)-1-[3,5-bis(trifluoromethyl)phenyl]ethoxy)-3-(4-fluorophenyl)morpholino]methyl)-1H-1,2,4-triazol-3-one] | 0.58 ± 0.03 | 1.23 ± 0.03
 | C[C@@H](O[C@H]1OCCN(Cc2nn(CCCCCCCCNC(=O)CN3CCN(CC(=O)O)CCN(CC(=O)O)CCN(CC(=O)O)CC3)c(=O)[nH]2)[C@H]1c1ccc(F)cc1)c1cc(C(F)(F)F)cc(C(F)(F)F)c1 [APT-Oct-DOTA, 2-(8-(2-(1,4,7-tris(carboxymethyl)-1,4,7,10-tetraazacyclododecan-10-yl)acetamido)octyl)-5-([(2R,3S)-2-((R)-1-[3,5-bis(trifluoromethyl)phenyl]ethoxy)-3-(4-fluorophenyl)morpholino]methyl)-1H-1,2,4-triazol-3-one] | 1.32 ± 0.04 | 1.64 ± 0.02
0.38 nM and 0.38 ± 0.02 nM | CC(C)C[C@H](NC(=O)CNC(=O)[C@H](Cc1cccs1)NC(=O)[C@H](Cc1ccccc1)NC(=O)[C@H](CCC(N)=O)NC(=O)[C@H](CCC(N)=O)NC(=O)[C@@H]1CCCN1C(=O)[C@H](CCCCN)NC(=O)[C@@H]1CCCN1C(=O)[C@H](CCCNC(=N)N)NC(=O)CN1CCN(CC(=O)O)CCN(CC(=O)O)CCN(CC(=O)O)CC1)C(=O)N[C@@H](CCS(C)(=O)=O)C(N)=O [[^177Lu]Lu-DOTA-[Thi^8,Met(O2)^11]SP, metal not drawn] ({DOTA}-RPKPQQF[2Thi]GL[Met(O2)]-NH2; N-terminus and C-terminus assumed) |  | 
